The text below walks through data of patent US20230203125A1.

The assay has as its target CD47 (UniProt Q08722). As to the kind of experiment: cell-based or functional assay.
Chain of UniProt Q08722 (Q08722 19-323 limits assumed): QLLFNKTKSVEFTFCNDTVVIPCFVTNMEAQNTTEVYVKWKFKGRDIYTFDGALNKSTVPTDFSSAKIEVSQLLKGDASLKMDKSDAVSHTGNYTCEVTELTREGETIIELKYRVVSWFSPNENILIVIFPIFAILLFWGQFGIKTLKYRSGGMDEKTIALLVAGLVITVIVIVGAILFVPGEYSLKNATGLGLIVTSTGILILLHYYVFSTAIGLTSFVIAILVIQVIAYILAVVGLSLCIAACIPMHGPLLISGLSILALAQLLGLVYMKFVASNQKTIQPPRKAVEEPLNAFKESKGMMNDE

“SIRPγ fusion protein SIRPγ-CD28TM-CD28 (receptor)”: the Specific Lysis (%) of target cells DLD1-CEA, 24 h, effector-target ratio 1:1 was determined as 45.2%.
